Assays:
isolated human plasma = assay: Prothrombin time (PT) in isolated human plasma; type: biochemical; details: plasma of healthy human volunteers, incubation 3 min. at 37° C.
Description: Plasma was obtained from blood of healthy human volunteer and incubated with different concentrations of recombinant protein. APTT, PT and TT were determined like experimental procedure. (A) Activated partial thromboplastin time (B) prothrombin time and (C) thrombin time. Ctrl is related to plasma and Sal is related to plasma plus saline.
Finally, PT, aPTT and TT were assessed in isolated plasma of healthy human volunteers following incubation with recombinant protein for 3 min. at 37° C. […] Maximum test reading for aPTT was achieved following 12 nM, while for PT that was achieved following 6 nM of recombinant protein (FIGS. 11A and 11B).

plasmin = target: T1, plasmin (Homo sapiens, UniProt P00747); assay: Degradation of recombinant protein by plasmin (SDS-PAGE and residual thrombin inhibition); type: in vitro ADME
T1 construct: Serine protease (100 pM; thrombin, plasmin, trypsin or factor Xa) was incubated with recombinant protein
T1 sequence (P00747 581-810 limits assumed, species assumed): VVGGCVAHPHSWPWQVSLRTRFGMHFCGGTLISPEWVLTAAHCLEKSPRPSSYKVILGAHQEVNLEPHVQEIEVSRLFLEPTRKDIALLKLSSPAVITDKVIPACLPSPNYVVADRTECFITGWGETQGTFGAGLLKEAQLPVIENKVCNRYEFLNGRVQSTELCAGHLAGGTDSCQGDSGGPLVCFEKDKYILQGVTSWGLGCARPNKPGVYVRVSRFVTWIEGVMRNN
T1 sequence (P00747 97-580 limits assumed, species assumed): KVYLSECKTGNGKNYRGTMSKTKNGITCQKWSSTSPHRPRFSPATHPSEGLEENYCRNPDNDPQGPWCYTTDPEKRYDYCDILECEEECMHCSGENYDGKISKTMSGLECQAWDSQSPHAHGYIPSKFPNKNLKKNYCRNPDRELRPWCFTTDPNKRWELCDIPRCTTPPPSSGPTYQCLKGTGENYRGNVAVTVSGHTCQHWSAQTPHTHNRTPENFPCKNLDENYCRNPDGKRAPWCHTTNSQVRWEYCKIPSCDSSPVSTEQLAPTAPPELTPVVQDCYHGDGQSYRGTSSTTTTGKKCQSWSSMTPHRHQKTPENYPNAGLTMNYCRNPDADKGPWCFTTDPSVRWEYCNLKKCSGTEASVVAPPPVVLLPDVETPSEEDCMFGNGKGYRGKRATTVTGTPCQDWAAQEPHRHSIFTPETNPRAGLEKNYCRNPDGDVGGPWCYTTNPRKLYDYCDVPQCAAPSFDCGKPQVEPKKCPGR
Description: Recombinant protein (10 μM) was incubated with or without serine protease 1 μM (thrombin, plasmin, trypsin or factor Xa) in phosphate buffer 50 mM containing NaCl 150 mM and 0.1% of PEG 6000, pH 7.4 for 4, 6, 7 or 18 h at 37° C. Reaction mixtures (20 μl) were split by SDS-PAGE. (A) hydrolysis SDS-PAGE (15%) of recombinant protein by serine proteases following 6 h of incubation. (B) Percentage of thrombin inhibition by recombinant protein following 6 h of incubation with serine protease (see experimental procedures). (C) hydrolysis SDS-PAGE (15%) of recombinant protein by serine proteases following 18 h of incubation. (D) Percentage of thrombin inhibition by recombinant protein following 18 h of incubation with serine protease (see experimental procedures). Numbering of (B) and (D) corresponds to numbering of (A) and (C), respectively, and recombinant protein control is represented by CTRL. Recombinant protein (strip 1); thrombin (strip 2) and thrombin with recombinant protein (strip 3); plasmin (strip 4) and plasmin with recombinant protein (strip 5); trypsin (strip 6) and trypsin with recombinant protein (strip 7); factor Xa (strip 8) and factor Xa with recombinant protein (strip 9) and protein marker (strip 10; in A). (E) Identification of cleavage sites of thrombin in recombinant protein following 7 h of incubation. (F) Identification of cleavage sites of factor Xa in recombinant protein following 4 h of incubation. Cleavage sites of thrombin and factor Xa in recombinant protein sequence are shown in FIGS. S1 and S2, respectively. Experimental procedure for (C), (D), (E) and (F) was the same as for (A) and (B), except the incubation time and the type of serine protease used. FIG. 5 discloses “GKPQG” as SEQ ID NO: 18, “MPKGG” as SEQ ID NO: 19, and “SDAVH” as SEQ ID NO: 20.
Afterwards, it was determined whether serine proteases, like thrombin, plasmin, factor Xa and trypsin, hydrolyze recombinant protein. […] Upon addition of chromogenic substrate S-2238, the hydrolysis thereof by thrombin was monitored in spectrophotometer way. […]

thrombin = thrombin (Homo sapiens, UniProt P00734); assay: Thrombin inhibition, hydrolysis of chromogenic substrate S-2238; type: biochemical; parameters: Brown and cyan colors represent heavy and light chain of thrombin respectively
factor Xa = target: T2, factor Xa (Homo sapiens, UniProt P00742); assay: Serine protease inhibition test, factor Xa (chromogenic substrate); type: biochemical; details: recombinant protein 1, 100, 200 nM; protease 100 pM; 6 h at 37° C.
T2 construct: Serine protease (100 pM; thrombin, plasmin, trypsin or factor Xa) was incubated with recombinant protein; For factor Xa activity, buffer contained phosphatidylserine and phosphatidylcholine 50 μM
T2 sequence (P00742 235-488 limits assumed): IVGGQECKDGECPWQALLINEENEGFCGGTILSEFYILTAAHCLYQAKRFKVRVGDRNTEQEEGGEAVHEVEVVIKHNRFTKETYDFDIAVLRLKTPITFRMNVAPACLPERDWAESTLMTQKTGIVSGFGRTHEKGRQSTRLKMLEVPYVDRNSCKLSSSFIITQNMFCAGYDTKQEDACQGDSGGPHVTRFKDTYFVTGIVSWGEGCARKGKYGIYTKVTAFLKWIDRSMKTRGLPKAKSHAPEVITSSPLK
T2 sequence (P00742 41-179 limits assumed): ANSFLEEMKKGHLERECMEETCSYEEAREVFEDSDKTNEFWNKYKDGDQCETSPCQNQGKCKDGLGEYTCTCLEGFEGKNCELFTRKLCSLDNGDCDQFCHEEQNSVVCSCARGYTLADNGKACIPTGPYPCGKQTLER
Description: (A) Inhibition of serine proteases through recombinant protein. Serine protease (100 pM; thrombin, plasmin, trypsin or factor Xa) was incubated with recombinant protein (1, 100 and 200 nM) in phosphate buffer 50 mM containing NaCl 150 mM and 0.1% of PEG 6000, pH 7.4 for 6 h at 37° C. Following addition of chromogenic substrate corresponding to reaction mixture, hydrolysis thereof was monitored at 405 nm. For factor Xa activity, buffer contained phosphatidylserine and phosphatidylcholine 50 μM. […] (B) Typical curves for hydrolysis of chromogenic substrate S-2238 (15 μM) by thrombin 0.1 nM in absence (trace a) or presence of recombinant protein (trace b, 15 pM; trace c, 30 pM; trace d, 60 pM and trace e, 100 pM) in phosphate buffer 50 mM containing NaCl 150 mM and 0.1% of PEG 6000, pH 7.4 at 37° C. (C) Residual activity of thrombin in presence of increasing concentration of recombinant protein. (D) Dose-response curves for thrombin inhibition by recombinant protein. Percentage of thrombin inhibition was plotted versus the concentration record of recombinant protein. Experimental condition of (C) and (D) is the same as in (B).
The first performed experiment was the test of serine proteases inhibition through recombinant protein. […] Hydrolysis of a chromogenic substrate through serine proteases in the presence and absence of recombinant protein was monitored in a spectrophotometer way. […]

[1] = from plot of Kobs versus recombinant protein concentration

B1: GKPQGHPHDALEARSDAVHTAVPKMPKGGHGGFEPIPIDYDERALEARSDAVHTAVPKMPKGGLGGFEPIPIDYDERALEARSDAVHTAVPKMPKGGHGGFEPIPIDYDERALEARSDAVHTAVPKMPKGGHGGFEPIPIDYDERALHALEHHHHHH (protein)
chain: GKPQGHPHDALEARSDAVHTAVPKMPKGGHGGFEPIPIDYDERALEARSDAVHTAVPKMPKGGLGGFEPIPIDYDERALEARSDAVHTAVPKMPKGGHGGFEPIPIDYDERALEARSDAVHTAVPKMPKGGHGGFEPIPIDYDERALHALEHHHHHH
modifications: Sculptin recombinat protein
notes: recombinant His-tagged protein modified from tick sculptin, expressed in E. coli
- PT (isolated human plasma): prolonged by recombinant protein in concentration-dependent way
- concentration at which maximum test reading for PT was achieved (isolated human plasma): 6 nM
- SDS-PAGE strip of 20-kDa (non-digested recombinant protein) (plasmin; 10 μM protein with 1 μM plasmin, 6 h at 37° C.): completely disappeared
- SDS-PAGE strip of 20-kDa (recombinant protein monomer) (plasmin; 10 μM protein with 1 μM plasmin, 18 h at 37° C.): completely disappeared
- thrombin inhibition after incubation (plasmin; after 18 h incubation with plasmin, diluted to 100 pM): did not inhibit thrombin
- Koff (thrombin; [1]): 0.65±0.04×10^−3 s^−1
- Kon (thrombin; [1]): 4.04±0.03×10^7 M^−1 s^−1
- decrease of residual activity of thrombin (thrombin; recombinant protein 1 nM, thrombin 100 pM, 6 h at 37° C., pH 7.4): about 97%
- Inhibition Type (thrombin; this study): Competing
- inhibition of factor Xa (factor Xa): did not inhibit

Reference: patent publication US12187785B2, “Recombinant protein and fragments thereof, method for producing said recombinant protein, synthetic gene and use of sculptin or recombinant protein for preparing a medicament or pharmaceutical composition for the prophylaxis and/or treatment of thromboembolic diseases or as a direct and specific …” (priority 2017, dated 2025)
